Km, kcat and kcat/Km data for 2 substances are collected here from PMC12548092, “Exploring Helical Fraying Linked to Dynamics and Catalysis in Adenylate Kinase” (Biochemistry, 2025).

For orientation: Km means the concentration of substrate that gives half-maximal velocity. By kcat is commonly meant the number of substrate molecules converted per active site and unit of time at saturation. As a reminder, the kcat/Km is the turnover number divided by the Michaelis constant.

The subject of the series is Nc1ncnc2c1ncn2[C@@H]1O[C@H](COP(=O)(O)OP(=O)(O)OP(=O)(O)O)[C@@H](O)[C@H]1O. The series is described as follows: purified protein. The note with it: varied substrate not named in table (text: substrates ATP and AMP).

On to AKeco (Escherichia coli K-12), for which the Km worked out at 110 ± 9 µM, the kcat was 360 ± 11 s⁻¹ and the kcat/Km amounted to 3.3e+06 M⁻¹ s⁻¹.

As for AKeco (Escherichia coli K-12; E114A), the Km turned out to be 36 ± 7 µM, the kcat amounted to 254 s⁻¹ and the kcat/Km came out at 7.1e+06 M⁻¹ s⁻¹.
